According to PMC9407234:

Assays:
XPA M32-4 = XPA M32-4 (UniProt P23025 1-273, R30E;K31E;R32E;R34E); experiment: MST
XPA M32-4/70-2 = XPA M32-4/70-2 (UniProt P23025 1-273, R30E;K31E;R32E;R34E;E106K;F112A); experiment: MST
XPA M32-4/70-2, sequence (P23025 whole entry R30E/K31E/R32E/R34E/E106K/F112A): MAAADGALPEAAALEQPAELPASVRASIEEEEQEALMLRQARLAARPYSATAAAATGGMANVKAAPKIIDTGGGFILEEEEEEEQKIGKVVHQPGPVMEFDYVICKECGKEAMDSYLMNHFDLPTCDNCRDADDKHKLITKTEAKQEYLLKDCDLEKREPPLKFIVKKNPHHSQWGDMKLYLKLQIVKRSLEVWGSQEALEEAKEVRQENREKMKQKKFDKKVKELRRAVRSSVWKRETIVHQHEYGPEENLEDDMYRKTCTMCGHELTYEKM

XPA M32-4, sequence (P23025 whole entry R30E/K31E/R32E/R34E): as the sequence (P23025 whole entry R30E/K31E/R32E/R34E/E106K/F112A) above, with K106E, A112F counted along it

## TTTTGCGGCCGCTTTTGCGGCCGC (structured_DNA) [4-nt hairpin NER junction mimic]
XPA M32-4
  Kd: 8.4 ± 2.3 µM
XPA M32-4/70-2
  Kd: 10 ± 3 µM
